According to the NTF2 design screens of Basanta et al. (2020):

Test: protease stability score; higher = more stable; yeast display proteolysis, trypsin and chymotrypsin;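 also: log10 excess protease needed over predicted unfolded state with 0 meaning unfolded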

| Sequence | protease stability score |
| --- | --- |
| DEDALRKFKEFLEIKREGDERRLLELFDENVKIVVGDTELEGMTEAARDITRKRKEMRVEQRYDRFHVQGEHIRARARFTVKFNGRPHTNENTFRVVLRNGHYKSYELKIDPDELRKLDS | -0.083 |
| DEDALRNWEQFIRNYKHGDETELQKLVDPNVHVRIGDREIHGREKLREHWRRQKEHARVDINVRSLEDQGSKVQVTFKMQYQVNGQPKHNSMRMEFTVRNGRIVEASYQFDPDEHRKLQS | 1.23 |
| DEDALRVFDKLVKAWKNNDEDKMKKLMDPNVKVEYGDKQVHGMDEYLHSMVTRQRQIRVHFRVKDIKTRPGRVVANYEVEEENDGKPHHTKVRVTLKVHNGRVKQAEYDVKP | 0.017 |
| DEDALTRIEDAAKHMNEGNFERYADMADPNAHVNIGDKTYQGRESLKHLMQEQRERWEFKLDVRRVDQDGEKAVVTAKVNQKHNGKPDTKTVYIYVSWKNGRAQEIEVRQDS | 0.319 |
| DEDALTRLREFDDNVRKGNKHRLQDLMDPNVKVRYGDTEIKGREHVAKELKKLVDTMHIEIDYKSMSAEGNHATLTAEVVVQVNGRPIKFRMHVQVQFENGKIKELVYRFSEDAQKKMDG | 1.53 |
| DEDAMKRFKDLLRAQETGDEHRIRELVDPNAQFVIGDRKITGREEYVRIFREERENMHIDLEVKSVSVKGNKLTIHLTFKVDHNGKPMRASAQIQVKIRNGRIQEVQYDFDEDQLRKLKR | 0.32 |
| DEDANDVVRKYIEAVNTGDPDQVNELVDPNVRVEVGDKTLSGHEEIRKEQQERTKQSRVEIEVKQMKVHGDNIILYAVVRYNHNGKPSSRHVKMTFSAHNGHFKHIRVHDDQ | 0.809 |
| DEDANENIRKQLEWEEKGNPQQAKKQADPNAQFNIGDHTFNGMDEYMHWVKRELTHLRIEIKDVKFDVQGEKIEIDVRFVVDENGRPKEDRQDFDVTMHNGHIHNINVDKIS | -0.21 |
| DEDANHRFKDQVRAIKTGDSKRVEELVDPNVHNHVGEWRVHGSTHWATLAKQVRDEMRVDLDIKSVENSGNKLNIDANVIIDHNGKPHRNQVNWNVNNHNGRIQEASAKKSN | -0.484 |
| DEDANKVMKKVVEAIKEGDPDTIRKLVDPNARVNVGDTTVNGREEFARQNHEKMNQSRIHYLSMDFEQREGHAVVTVRFEKHHNGKPDTDRYRATANFKNGKLTEYKQKEDG | -0.291 |
| DEDANNTAKEMLENIDEGNEKRWSELMDENATFNVGDKTYHGRENAEHLFRERKDEMRIEIDLHKVEVSGDHVVLDITVVKEHNGKPRRVDVQVEFRIHNGRMQEFVQDEHG | 0.245 |
| DEDANRELHKAMKHNDWDLLAKQMDKDVSKQVGDKTVHGRDRIQEDIKRLKTEIDHMEIEHVSARGDHLTADVHLVVNGQHVKFVIHIQFDNGRIKQIQWQVRDEDVEKQMKKLKG | -0.074 |
| DEDANRKAEEFAQNLRENDEDRLQQLVDPNARLNVGEFSVHGRTELTHQLRRVTREMRVEVQIRDIRVQNGHAHLDIEVVIDHNGKPSSRVLRMVVDFRNGKIQNLDVRTDQ | 0.601 |
| DEDANRKAREYAHAREHGDPRHAREYADPNAEFTVGDKSFHGMQEDVERMERERKEMRVEIKDVQVSAHDGRLTLDLRFVKDNNGQPREVRQNVQFNIENGRATEIDVQETK | -0.214 |
| DEDANRLVEEYIRAVEKGDEDQARRMMDENVTVKVGDKTVHGHDHQAREMNKVKKQARIEIKDYRLDNSNGRVVIRMTFIADRNGKPITFDIVIIINFHNGRAKNMHVHISEEELKRLEG | 1.06 |
| DEDANRRLRRLIEQIHENDPDKIDEMFDPNARVDIGDHTVHGREQLRQTVKREAKEIRIRIERLDVRVKGDKATVEMHFVRKNNGEPRSNRVVVTARIRNGKIESMKQTEDG | 0.763 |
| DEDAQELAEQLWTAWETGDPRQIQNLMDPNVNFRYGDKTFQGREHLHRLIKDIQENIRIDYRHYSVDVKGDKASIKINIQLHHDGKPETKTNDLTIHFSGDRIQRVEQNDRQ | 0.248 |
| DEDAQKQVEKMLQAVREGDDRQIKRLFDPNAEINVGDKHVTGREQATKEMSKRKKEMDIDIKIEEVQVKGDRVELKAVVLENKNGDPQTFHVRAVYHAHNGKIRTNNVEKDG | -0.074 |
| DEDAQKRAEEMMHALQNGDEKQIQTLFDKDAKVNVGDKEYHGKEQLAHDLKRRHDKIRVDYKDVHIRAHGDKVSLTFRVRVKINGVPADNSFQFTLKFRNGHVQSMSQQFDPKYEQDQRN | -0.033 |
| DEDAQKTVRKFLENITTGNPENAEKLLDPNVHIHYGDKRVSGRDQFHREAKQKLHDMRLSIDIKEVQVQGNRIDVDVRFSVNHNGRPYTITAHLSIEMSNGHIEHMELRIDESDKRRQKR | -0.237 |
| DEDAQRQVEELLKAEHEGDPKKFQELADPNVNAIYGDKRVHGRETLADQLAERVREMRVHYDSIDLRVRGNKVNVHINAKFKYNGVPIEISMTVVFVFHNGRLQRREVSIPEEVQTELTR | 0.129 |
| DEDAQTQVEKMLKNMQRGDNQEVNKMFDKNVEFRVGDRDIHGREEYARQVSREHKESRVEFRHIHARVKGDHVRIRVDVVRQVNGKPQRMTVEFEVQAHNGKIKRFQVEFDPDEERRVQK | 0.196 |
| DEDARKLAEELLKAQETGDPKTLKRLVDPNVKVDVGDKTFHGMDEINEEVTRTKRRQRVKIDRVSIHVRGDSVVIHVTEKNEKDGQPSSRQYVQEMRVTNGHVVEMKQNKSR | -0.468 |
| DEDARKQAQRWITNLNNGNEKEVSKQFDPNARMDVGNRDVHGTEQLLQKLRTRLKQARQSIELRDIDRQGDNLQLDVRMEFVHNGQPDDVRFTVQMNYHNGKIKRANWRIPEEDQKKLER | 0.165 |
| DEDARRKVEEFMDLMRNNNPEELAKLADPNATVHYGDKVVHGREQAMEWWKKFLTELRVDIKSVSIRVSGNKIDVEVDMIVQVNGRPVTLNWRFSFNFNNGKIEQIHVHISEEQQERIHS | 0.68 |
